In PMC5153528:
pKd: −log10 of the molar value. Several values for one entry are separate records, joined by “and”; a condition that tells them apart may be missing. Equal entries are not always repeated.

Biological target: recombinant monoclonal rhesus macaque IgG1 (MM IgG1), anti-CD8α (rhesus macaque (Macaca mulatta))
Experiment: SPR; IgG covalently coupled (sNHS/EDC, printed at four densities, sodium acetate pH 4.5-5.0) on a carboxymethyldextran prism (IBIS MX96 array); FcγR injected as analyte, eight part threefold dilution series generally starting between 18 and 41 µM; running buffer PBS + 0.01% BSA + Tween 20; global kinetic analysis, 1:1 model; two experiments with different preparations of FcγR

| Substance | pKd |
| --- | --- |
| human FcγRIIa H131 (from UniProt P12318 34-317) (receptor) | 5.15 and 5.05 |
| human FcγRIIa R131 (receptor) | 4.68 and 5.05 |
| human FcγRIIIa F158 (from UniProt P08637 17-254) (receptor) | 5.40 and 5.10 |
| human FcγRIIb/c (from UniProt P31994 43-310) (receptor) | 4.28 and 4.44 |
| human FcγRIIIa V158 (receptor) | 5.40 and 5.30 |

The remaining lines, values ahead:

| pKd | Substance |
| --- | --- |
| 4.89 and 4.82 | human FcγRIIIb NA2 (from UniProt O75015 17-200) (receptor) |
| 4.82 and 5.05 | human FcγRIIIb SH (from UniProt O75015 17-200) (receptor) |
| 4.74 and 4.85 | human FcγRIIIb NA1 (from UniProt O75015 17-200) (receptor) |

Biological target: recombinant monoclonal rhesus macaque IgG3 (MM IgG3), anti-CD8α (rhesus macaque (Macaca mulatta))
Experiment: as above

| Substance | pKd |
| --- | --- |
| human FcγRIIa H131 (from UniProt P12318 34-317) (receptor) | 4.57 and 4.80 |
| human FcγRIIa R131 (receptor) | 4.60 and 4.96 |
| human FcγRIIIa F158 (from UniProt P08637 17-254) (receptor) | 4.11 and 4.48 |
| human FcγRIIb/c (from UniProt P31994 43-310) (receptor) | 4.34 and 4.42 |
| human FcγRIIIa V158 (receptor) | 4.08 and 4.57 |

Continued, values first:

| pKd | Substance |
| --- | --- |
| 3.29 and 3.57 | human FcγRIIIb NA2 (from UniProt O75015 17-200) (receptor) |
| 3.13 and 3.46 | human FcγRIIIb SH (from UniProt O75015 17-200) (receptor) |
| 3.15 and 3.68 | human FcγRIIIb NA1 (from UniProt O75015 17-200) (receptor) |

Biological target: recombinant monoclonal rhesus macaque IgG4 (MM IgG4), anti-CD8α (rhesus macaque (Macaca mulatta))
Experiment: as above

| Substance | pKd |
| --- | --- |
| human FcγRIIa H131 (from UniProt P12318 34-317) (receptor) | 4.70 and 4.64 |
| human FcγRIIa R131 (receptor) | 4.70 and 4.96 |
| human FcγRIIIa F158 (from UniProt P08637 17-254) (receptor) | 4.32 and 4.77 |
| human FcγRIIb/c (from UniProt P31994 43-310) (receptor) | 4.48 and 4.49 |
| human FcγRIIIa V158 (receptor) | 4.54 |

Second part, the substance after the results:

| pKd | Substance |
| --- | --- |
| 3.14 and 3.57 | human FcγRIIIb NA2 (from UniProt O75015 17-200) (receptor) |
| 3.33 and 3.47 | human FcγRIIIb SH (from UniProt O75015 17-200) (receptor) |
| 3.30 and 3.92 | human FcγRIIIb NA1 (from UniProt O75015 17-200) (receptor) |

Biological target: recombinant monoclonal rhesus macaque IgG2 (MM IgG2), anti-CD8α (rhesus macaque (Macaca mulatta))
Experiment: as above

| Substance | pKd |
| --- | --- |
| human FcγRIIa H131 (from UniProt P12318 34-317) (receptor) | 4.96 |
| human FcγRIIa R131 (receptor) | 4.39 and 4.49 |
| human FcγRIIIa F158 (from UniProt P08637 17-254) (receptor) | 4.32 and 4.82 |
| human FcγRIIb/c (from UniProt P31994 43-310) (receptor) | 4.05 and 3.90 |
| human FcγRIIIa V158 (receptor) | 4.68 and 4.85 |

The next lines start with the values.

| pKd | Substance |
| --- | --- |
| 3.28 and 4.10 | human FcγRIIIb SH (from UniProt O75015 17-200) (receptor) |
| 3.15 and 3.60 | human FcγRIIIb NA1 (from UniProt O75015 17-200) (receptor) |
